# Assay results published in the supplement of paper PMC9170038.
# System: MS2 coat protein
# Assay: apparent KD of MS2 coat protein; designed switch direction (-1 OFF switch, 1 ON switch): -1; higher = weaker reporter binding
# Summary of the method: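 Designed RNA switches sharing common flanks were transcribed on Illumina chips by stalled E. coli RNA polymerase. They were titrated with SNAP-549-labelled MS2 coat protein, from 0.7 or 1.5 nM doubling to 3 µM, in Tris-HCl pH 7.5 buffer with KCl, MgCl2, BSA, DTT, tRNA and Tween-20. Titrations ran without input, with 200 uM small-molecule ligand, or with an oligonucleotide input. The apparent KD of each design is the median over its clusters, after curve-fitting of normalised cluster fluorescence.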
# [1] = Eterna round: R95, input ligand: microRNA oligo, concentration not stated
# [2] = input ligand: microRNA oligo, concentration not stated
# [3] = Eterna round: R95, input ligand: FMN 200 uM
# [4] = Eterna round: R95, input ligand: none
Sequence,apparent KD of MS2 coat protein [1],apparent KD of MS2 coat protein (input ligand: FMN 200 uM),apparent KD of MS2 coat protein [2],apparent KD of MS2 coat protein (input ligand: none),apparent KD of MS2 coat protein [3],apparent KD of MS2 coat protein [4]
GGUGCGUAUGUGAGGAUAUGCUGGUCCUUGGCUCGGCAGAAGGCACAUGAGGAUCACCCAUGUGGUGUCGUACU [salish99_Bmod_ex4_068] (puzzle: Brourd's mod of Exclusion 4),96.8 nM,,,,,
"AUAAAUCAUGUAGGAUAUGCGUGGCGAAGCUAUGCAGAAGGACAUGAGGAUCACCCAUGUUCUAGCGUCUGAGUACAGAUGCAA [Mat - Exclusion NG 1 - Mod of JL - D3] (Eterna round: R96, puzzle: Exclusion NG 1)",,72.5 nM,18.5 nM,22.9 nM,,
"GAAUGAGAGCAGGAUAUCUUAUAAAUGUAUGAAAGAGAAGGGCUCACAUGAGGAUCACCCAUGUGGUCCUAGAC [jl-ex6-4.72 jandersonlee mod] (Eterna round: R97, puzzle: Exclusion 6)",,309 nM,,40.1 nM,,
"GGUCCACAUGAGGAUCACCCAUGUUAGGAUAUCUCCUGCCUCCUAAAUGGAAGCAGACAGAGAAGGAACAUCAA [Soanatra] (Eterna round: R96, puzzle: Exclusion 1)",,113 nM,21.8 nM,25.4 nM,,
"GGCGAAGUAGGAUAUACAUGAGGAUCACCCAUGUAACCUGAUGGCGUAGGUCUUCUAUGUAGAAGGACUACGCC [jl-ex3-4.39 ViennaUCT mod] (Eterna round: R97, puzzle: Exclusion 3)",,15.9 nM,,18.1 nM,,
AAGAAACAUGAGGAUCACCCAUGUCAGGAUAUCUCGAAAAGCAUAGAAAUAUGCGAAGAGAGAAGGGACUAUCC [ChP Ext 10-04-2015 #3] (puzzle: Exclusion 1),23.7 nM,,,,22.7 nM,31.6 nM
"AAAAGGUCAGGAUAUGCUUGGCGGAUUCUGGUAUCCAAAUGACAUGAGGAUCACCCAUGUAGAAGGGACAUCAG [Maanlesoge] (Eterna round: R97, puzzle: Exclusion 2)",,21.8 nM,,20.6 nM,,
"UAUUAGCAAGCAAAUGGGUACAUGAGGAUCACCCAUGUGCUCGUCUUAUAAGGUACUGUGACGAACGUCACGGUACC [mod--Eli5] (Eterna round: R97, puzzle: Sensor, turn-off variant 1)",,27.8 nM,,26.8 nM,,
UUUUAACAUGAGGAUCACCCAUGUGAGGAUAUCGAAAUUUAUAUUAAUAUUUUUAUAACGAGAAGGCACAUUUU [JMF 71] (puzzle: Exclusion 1),64.8 nM,,,,,
"AGAUGGAUUGCUAGAAAACUAGUAAUUCAUCAAUCAAGCACAUGAGGAUCACCCAUGUCUUAGAGUACGUGAGUACA [JL gull wing 9] (Eterna round: R96, puzzle: Sensor v2, turn-off variant 2)",,12.8 nM,12.5 nM,16 nM,,
"UUGGAACAUGAGGAUCACCCAUGUCAGGAUAUUCCAAAAUCGUCGAAAGACGAUAACAGAAGAAGGGACAUUAG [Fiskxlusion 9 - Jieux - Exclusion 1] (Eterna round: R97, puzzle: Exclusion 1)",,124 nM,,80.2 nM,,
"AGUACUAACACGUCGGUGUUAGUACAAUAAGCUUGUGAAACAUGAGGAUCACCCAUGUCCUCAUAAGCUCGUCUUAU [salish99_TOv2_r3_080] (Eterna round: R96, puzzle: Sensor v3, turn-off variant 2)",,16.4 nM,492 nM,17.8 nM,,
"UGAGCAUGAGGAUAUACAAGGCGACCGUGAGGUCGAGGUUUACAUGAGGAUCACCCAUGUAGAAGGCAUGUUCU [jl-ex2-4.07] (Eterna round: R97, puzzle: Exclusion 2)",,40.2 nM,,20 nM,,
GAGCAGGAAGGAUAUACAUGAGGAUCACCCAUGUACCAUCAAGGCUUUGAUUUUCACGGUAGAAGGUCCCAAUA [Sotece] (puzzle: Exclusion 3),34.8 nM,,,,,
"AUUGGGUGAGGAUAUCCAUCUGGAUCAGACUAGAUCCUGAUGGAGAAGGCACAUGAGGAUCACCCAUGUGAGUU [Eli 4x 4.34] (Eterna round: R97, puzzle: Exclusion 4)",,108 nM,,95.6 nM,,
GGUUGACAUGAGGAUCACCCAUGUGAGGAUAUGCGAGAGAAAAAAGUGAGGAAGAAAAGCAGAAGGCGCUGACG [salish99-ex1_r3_002] (puzzle: Exclusion 1),28.6 nM,,,,15.5 nM,13.5 nM
CUUUAGUGAGGAUAUCAGUAGUAAUACAAUAGUAUUACUAUUGAGAAGGCACAUGAGGAUCACCCAUGUUCCUC [Mat - Exclusion 4 - Mod of Omei - D80] (puzzle: Exclusion 4),27.2 nM,,,,,

Sequence,apparent KD of MS2 coat protein [1],apparent KD of MS2 coat protein (input ligand: FMN 200 uM),apparent KD of MS2 coat protein [2],apparent KD of MS2 coat protein (input ligand: none),apparent KD of MS2 coat protein [3],apparent KD of MS2 coat protein [4]
AAAAUGUGAGGAUAUCAGGUGUGCUAGCGAACUGGUACAUCUGAGAAGGCACAUGAGGAUCACCCAUGUUCCUU [Mat - Exclusion 4 - Mod of JL - D51] (puzzle: Exclusion 4),16.2 nM,,,,,
CUCGGGAGUCAGGAUAUCGGCACAUAUCAAUCACGAGAAGGGACGACAUGAGGAUCACCCAUGUGGGAAAAGAA [Bivetilaza] (puzzle: Exclusion 6),38.1 nM,,,,92.9 nM,41.7 nM
ACUAGAUGAGGAUAUGCAUGUUUUCGUGUUCUUCUAGAUUAACAUGAGGAUCACCCAUGUAGAAGGCGUCAAUU [Exclusion 2 - 28] (puzzle: Exclusion 2),48 nM,,,,,
"AGUACAUGAGGAUCACCCAUGUCAGUUAUCAAUGGCACGCCUAAGGAUAUUGAGCGUCAAAGGCUCAAGAAGGUAGCUUUAUGC [Eternabot solution 12] (Eterna round: R96, puzzle: Exclusion NG 3)",,13.7 nM,16.7 nM,25.6 nM,,
"GGACCACAUGAGGAUCACCCAUGUCAGGAUAUGACGGCGUCGGCGAAAGCGGAGGCGGUCAGAAGGGACGGAAA [AK-MS2ROC-r4-exclusion1-9.0] (Eterna round: R97, puzzle: Exclusion 1)",,84.6 nM,,34 nM,,
"CCGUGCACGCUGCGGUCCUACAUGAGGAUCACCCAUGUGGUCUGGUGGCGUGGGUCGCCGGACUUGGCUCGUCUUGU [salish99_S_TOV1_R5_020] (Eterna round: R97, puzzle: Sensor, turn-off variant 1)",,19.7 nM,,20.5 nM,,
"AACCUGAGGCUUUGCUUUAGGUUUACAUGAGGAUCACCCAUGUAGGAUAUGGUAGGCUUUGCUUACCAGAAGGACAUGAUAAUU [Mat - Exclusion NG 3 - Mod of JL - D27] (Eterna round: R96, puzzle: Exclusion NG 3)",,215 nM,33 nM,43.8 nM,,
"GCAGCGUAUGUAGGAUAUCGGUCAGUUUCUGAUCGAGAAGGACAUGAGGAUCACCCAUGUUAAGUCAUGCGUGAGCAUGGCUGC [JL ENG1 3.72] (Eterna round: R96, puzzle: Exclusion NG 1)",,317 nM,23.8 nM,31.4 nM,,
"UGGACACCAGUAGGAUAUGUAGGAUAUGUUGUUGAGGAUCACCCAACAAAUUAAACGACAGAAGGACAGAAGGACUAUUAUCCU [pwkr exNG2 2xFMN 1xF5.1] (Eterna round: R96, puzzle: Exclusion NG 2)",,52.5 nM,57.8 nM,60.8 nM,,
"GCAAGCUUAAUCACUAUGAACAUGAGGAUCACCCAUGUAUAAGGUAAUACUUUUGGGCCCUUUAUUACUCGUCUUAU [JR_STOV1_Sub030] (Eterna round: R97, puzzle: Sensor, turn-off variant 1)",,61.3 nM,,80.3 nM,,
"GUGUACAGAGGAUAUAUAUGAGCAUGGAAACAUGCAAGAUCACAUGAGGAUCACCCAUGUAGAAGGCUGUACAC [Ex2: 736] (Eterna round: R96, puzzle: Exclusion 2)",,861 nM,99.3 nM,112 nM,,
"AAAGGAGUAGGAUAUGAGCCCAAAUACAUGAGGAUCACCCAUGUCGGGUUCAUGGAGGGCUUAGAAGGAUUUAAAA [Onreridi] (Eterna round: R97, puzzle: Exclusion 5)",,25.8 nM,,23.1 nM,,
GCCAGAGCAGGAUAUCUAUAUUAUCACAUGAGGAUCACCCAUGUCCAGCGAAAGCUGGAGGGAGAAGGGCUCUGGC [Fiskers Ex 5 - 26] (puzzle: Exclusion 5),76.7 nM,,,,55.7 nM,74.5 nM
"CGUUGGUCAGGAUAUGGUGGGCUGGUCGCGCGGCCGGGUGGCUAGAAGGGACAUGAGGAUCACCCAUGUACGGC [excls4-IX] (Eterna round: R96, puzzle: Exclusion 4)",,60.3 nM,30.1 nM,48.9 nM,,
"CAUGUCCAACGAGGAUAUGGGAAAGGAAGUGUACCAGAAGGCGUACGGACAUGAGGAUCACCCAUGUCGCGCGGCGCGAUGUGG [PowerStrip EXNG 1.1] (Eterna round: R96, puzzle: Exclusion NG 1)",,47.6 nM,28.3 nM,41.5 nM,,
UGUGCGUAUGUGAGGAUAUGCUGGUCCUUGGAUCGGCAGAAGGCACAUGAGGAUCACCCAUGUGGUGUCGUUCG [salish99_Bmod_ex4_097] (puzzle: Brourd's mod of Exclusion 4),206 nM,,,,,
AUAAAUAACGUUAGGAUAUAUUUUGUGACAUCAGGAUAGAAGGAACAUGAGGAUCACCCAUGUGAUUCUGUGAA [Maenin] (puzzle: Brourd's mod of Exclusion 4),37.2 nM,,,,46.6 nM,40.3 nM
